From patent US20090137002A1 (published 2009)

Columns and labels:
[1] = molecular target: T1, myc-tagged human EphB4 on transfected CHO cells (human, UniProt P54760 16-987); experiment: FACS titration on CHO-EphB4 cells
T1 construct: whole, on cells; also called CHO-EphB4; CHO-hEphB4; not shown: myc tag
T1 sequence (looked up): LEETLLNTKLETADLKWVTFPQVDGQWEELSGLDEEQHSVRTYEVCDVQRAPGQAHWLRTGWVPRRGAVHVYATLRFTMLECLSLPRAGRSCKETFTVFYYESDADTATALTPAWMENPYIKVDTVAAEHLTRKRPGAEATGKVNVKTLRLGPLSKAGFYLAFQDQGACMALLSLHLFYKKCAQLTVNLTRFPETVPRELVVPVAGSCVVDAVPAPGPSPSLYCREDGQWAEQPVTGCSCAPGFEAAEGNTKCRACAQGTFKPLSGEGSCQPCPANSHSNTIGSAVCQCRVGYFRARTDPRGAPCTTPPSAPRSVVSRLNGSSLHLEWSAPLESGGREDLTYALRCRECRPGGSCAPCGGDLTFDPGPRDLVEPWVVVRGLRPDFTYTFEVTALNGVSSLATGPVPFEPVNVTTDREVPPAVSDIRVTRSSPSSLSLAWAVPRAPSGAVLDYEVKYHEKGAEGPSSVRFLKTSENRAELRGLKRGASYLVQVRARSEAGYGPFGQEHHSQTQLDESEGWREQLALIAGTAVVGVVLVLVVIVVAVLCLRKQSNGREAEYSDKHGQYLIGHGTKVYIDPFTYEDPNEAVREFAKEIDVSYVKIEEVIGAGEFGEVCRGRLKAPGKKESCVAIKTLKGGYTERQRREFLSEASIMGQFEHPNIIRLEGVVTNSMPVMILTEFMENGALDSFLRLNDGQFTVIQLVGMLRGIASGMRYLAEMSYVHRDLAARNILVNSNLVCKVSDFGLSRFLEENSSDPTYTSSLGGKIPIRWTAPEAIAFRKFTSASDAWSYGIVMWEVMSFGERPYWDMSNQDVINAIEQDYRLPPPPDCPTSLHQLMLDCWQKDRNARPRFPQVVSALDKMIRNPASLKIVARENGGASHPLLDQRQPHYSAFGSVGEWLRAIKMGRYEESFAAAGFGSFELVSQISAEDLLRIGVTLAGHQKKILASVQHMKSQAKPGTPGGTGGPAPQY

[2] = molecular target: T1, myc-tagged human EphB4 on transfected …; experiment: FACS, inhibition of murine ephrin-B2 binding to CHO-EphB4 cells
Protocol: CHO-EphB4 cells were preincubated with matured Fab at different concentrations followed by addition of the ligand, murine ephrin-B2 (extracellular domain, 98% identity to human Ephrin-B2). Receptor-bound ephrin-B2 was then detected via biotinylated anti-mouse ephrin-B2 antibody (R&D Systems) and streptavidin-PE. […] The MOR07310 derivatives perform slightly better than the MOR03641 derivatives. The IC50 values of the x-cloned binders are in the same range as those of their cloning parentals.

[3] = molecular target: T2, recombinant mouse EphA4-Fc fusion protein (mouse, UniProt Q03137 20-547, limits assumed); experiment: ELISA, well P15 [part 2]
T2 construct: also called mEphA4; not shown: Fc part, not described

[4] = molecular target: T3, recombinant murine EphB4-Fc fusion protein (mouse, UniProt P54761 16-539); experiment: SET (MSD), solution equilibrium titration; n = 1
T3 construct: extracellular domain; also called mEphB4; mu EphB4; not shown: Fc part, not described
T3 sequence (looked up): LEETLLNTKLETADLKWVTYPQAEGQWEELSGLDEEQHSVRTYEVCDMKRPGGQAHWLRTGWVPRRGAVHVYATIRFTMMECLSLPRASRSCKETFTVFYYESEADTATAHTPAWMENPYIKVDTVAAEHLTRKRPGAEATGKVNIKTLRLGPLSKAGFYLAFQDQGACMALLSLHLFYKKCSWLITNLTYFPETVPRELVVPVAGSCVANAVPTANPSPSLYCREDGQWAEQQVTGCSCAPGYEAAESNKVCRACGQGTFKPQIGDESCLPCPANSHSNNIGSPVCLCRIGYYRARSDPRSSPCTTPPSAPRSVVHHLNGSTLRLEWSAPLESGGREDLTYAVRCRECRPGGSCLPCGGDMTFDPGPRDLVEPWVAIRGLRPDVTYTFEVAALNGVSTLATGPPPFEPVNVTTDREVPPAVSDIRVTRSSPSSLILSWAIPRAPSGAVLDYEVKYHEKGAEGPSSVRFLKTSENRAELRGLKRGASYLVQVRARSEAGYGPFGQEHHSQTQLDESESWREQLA
Protocol: Two independent measurements were performed on human and murine EphB4-Fc.

recombinant mouse EphB2 = molecular target: T4, recombinant mouse EphB2 (mouse, UniProt P54763 19-540, limits assumed); experiment: ELISA, well M15 [part 2]
T4 construct: also called mEphB2
T4 sequence (looked up): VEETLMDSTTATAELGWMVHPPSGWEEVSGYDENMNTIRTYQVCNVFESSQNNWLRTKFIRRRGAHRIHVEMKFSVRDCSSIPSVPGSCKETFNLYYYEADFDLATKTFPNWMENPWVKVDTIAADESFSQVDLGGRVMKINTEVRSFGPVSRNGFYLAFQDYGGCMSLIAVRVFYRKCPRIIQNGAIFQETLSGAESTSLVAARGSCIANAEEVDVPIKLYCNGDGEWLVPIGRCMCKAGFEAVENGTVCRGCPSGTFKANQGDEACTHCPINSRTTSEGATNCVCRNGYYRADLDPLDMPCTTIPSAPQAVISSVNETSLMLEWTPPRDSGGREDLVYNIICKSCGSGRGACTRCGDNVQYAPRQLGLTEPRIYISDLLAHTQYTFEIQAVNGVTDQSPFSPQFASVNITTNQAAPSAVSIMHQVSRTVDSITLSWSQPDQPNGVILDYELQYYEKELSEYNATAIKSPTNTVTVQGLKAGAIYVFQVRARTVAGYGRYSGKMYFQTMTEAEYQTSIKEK

T2 sequence (Q03137 20-547 limits assumed): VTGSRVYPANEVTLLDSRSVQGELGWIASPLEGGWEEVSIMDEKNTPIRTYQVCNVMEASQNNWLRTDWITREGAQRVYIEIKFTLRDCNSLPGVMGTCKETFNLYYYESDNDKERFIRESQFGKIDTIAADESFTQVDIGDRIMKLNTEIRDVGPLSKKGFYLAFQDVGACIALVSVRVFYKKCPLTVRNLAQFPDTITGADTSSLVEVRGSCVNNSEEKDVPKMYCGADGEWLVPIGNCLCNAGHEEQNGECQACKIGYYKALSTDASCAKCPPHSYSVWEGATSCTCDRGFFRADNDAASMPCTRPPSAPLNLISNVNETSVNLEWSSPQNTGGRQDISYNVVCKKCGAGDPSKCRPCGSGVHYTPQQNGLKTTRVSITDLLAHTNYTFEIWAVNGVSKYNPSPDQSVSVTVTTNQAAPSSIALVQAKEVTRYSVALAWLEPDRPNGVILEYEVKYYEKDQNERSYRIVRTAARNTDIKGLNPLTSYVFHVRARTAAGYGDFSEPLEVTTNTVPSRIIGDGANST

B1: MOR03641 Fab (Fab, V domains shown)
VH: QVQLVQSGAEVKKPGSSVKVSCKASGGTFSTYAISWVRQAPGQGLEWMGRIIPIFGTANYAQKFQGRVTITADESTSTAYMELSSLRSEDTAVYYCARSSYTILTTYYNYNAMDNWGQGTLVTVSS
VL: DIQMTQSPSSLSASVGDRVTITCRASQNINNFLNWYQQKPGKAPKLLIYGSSILQSGVPSRFSGSGSGTDFTLTISSLQPEDFAVYYCHQVSDTSDTFGQGTKVEIKR
notes: Monomeric HuCAL Fab (VH1A, kappa1), purified, MH-tagged; also called 3541 [sic]
B1 was tested, and the EC50 [1] was > 40 nM and the IC50 [2] was 4.7 nM.

B2: MOR03640 Fab (Fab, V domains shown)
VH: QVQLVESGGGLVQPGGSLRLSCAASGFTFNNSWMSWVRQAPGKGLEWVSNITSSSSMTHYADSVKGRFTISRDNSKNTLYLQMNSLRAEDTAVYYCARKGMSFYNNKYAKSMFDLWGQGTLVTVSS
VL: DIELTQPPSVSVAPGQTARISCSGDNLGKKYVHWYQQKPGQAPVLVIYYDSKRPSGIPERFSGSNSGNTATLTISGTQAEDEADYYCSAWTTTMMHIVFGGGTKLTVLG
notes: Monomeric HuCAL Fab, purified, MH-tagged
With B2 the binding result [3] was “no binding”, the Kd [4] was 6.63 nM and the binding result (recombinant mouse EphB2) was “no binding”.
